Measurements: EP4335870A1

Biological target: SARS-CoV-2 Spike RBD K417N/N501Y (SARS-CoV-2) (UniProt P0DTC2)

| Substance | Kd | koff | kon |
| --- | --- | --- | --- |
| ACE2(T27Y/H34A/H374N)-IgG1Fc (from UniProt Q9BYF1 18-615) (Fc fusion) | 0.447 nM | 0.000334 s⁻¹ | 747000 M⁻¹ s⁻¹ |
| ACE2-Fc IgG Hybrid Protein (ACE2-IgG1Fc, wildtype) (Fc fusion) | 7.6 nM | 0.00347 s⁻¹ | 457000 M⁻¹ s⁻¹ |
